In experiment [1] the target is T1, recombinant human CD163 protein (hCD163-Avi-His6, U-Protein Express BV) (human, UniProt Q86VB7 42-1050, limits assumed, site-specifically biotinylated on the Avi tag in the ELISA format).
T1 construct: Bought recombinant protein; also called hCD163 protein; recombinant hCD163; not shown: Avi tag and His6 tag
The experiment is described as follows: ELISA-format binding of radiolabeled sdAb to human CD163-Avi-His6 protein, read by gamma-counter. An excerpt:
(§1) FIG. 9. Determination of single domain antibody binding affinities after NOTA-conjugation via ELISA and a cell-binding study. (A) Binding of different concentrations of the ⁶⁸Gallium-labeled anti-CD163 single domain antibody (“[⁶⁸Ga]Ga-NOTA-anti-CD163 Nb”) to the human CD163-Avi-Hexahistine protein, compared to binding of a control irrelevant ⁶⁸Gallium-labeled single domain antibody (“[⁶⁸Ga]Ga-NOTA-Irr Nb”) (B) Single domain antibody binding of different concentrations of the […] anti-CD163 single domain antibody to HEK293T cells overexpressing mouse CD163.
(§2) Affinity determination of the [⁶⁸Ga]Ga-NOTA-anti-CD163 sdAb via ELISA was performed as described in the previous paragraph. The radioactive sdAb binding on the hCD163-Avi-His6 protein was measured via a γ-counter.
A general note: ELISA stands for enzyme-linked immunosorbent assay.

In experiment [2] the target is T1, recombinant human CD163 protein …. The experiment is described as follows: ELISA-format binding to hCD163-Avi-His6, bound radioactivity by gamma counter (FIG. 9A); radiolabeled; recombinant hCD163 protein (FIG. 9A).
Description: as §1, §2

For experiment [3] the target is unchanged. In words: binding to recombinant hCD163 protein (SPR per paragraph 101); NOTA-conjugated, not radiolabeled; recombinant hCD163 protein. As for the experimental part: (§3) The affinity of purified CD163-targeting sdAb and of the NOTA-conjugated anti-CD163 sdAb to recombinant hCD163 and mCD163 protein (U-Protein Express BV) was determined using the BIACORE-T200 (GE Healthcare, Freiburg, Germany). Surface plasmon resonance measurements were performed at 25° C. with HEPES buffered saline (HBS, 20 mM of HEPES pH 7.4, 150 mM of NaCl, 3.4 mM of EDTA 0.05% Tween-20) running buffer. The sdAbs were injected consecutively in 2-fold serial dilutions, from 250 to 1 nM. The association step was 100 s, the dissociation step was 200 s, and the two-step regeneration of 35 s at 30 μL·min-1, using 100 mM glycine at pH 3.0, was performed. Local curve fitting analysis was performed using the BIACORE evaluation software (GE Healthcare) by fitting the obtained sensorgrams to theoretical curves, assuming 1-1 binding geometries. For the determination of the equilibrium dissociation constant, the ratio of the association and dissociation rate constants were determined.

The target of experiment [4] is T2, human CD163 on HEK293T cells overexpressing hCD163 (human, UniProt Q86VB7 42-1156).
T2 construct: whole, on cells; also called HEK hCD163+ cells; HEK293T hCD163+ cells
T2 sequence (Q86VB7 42-1156): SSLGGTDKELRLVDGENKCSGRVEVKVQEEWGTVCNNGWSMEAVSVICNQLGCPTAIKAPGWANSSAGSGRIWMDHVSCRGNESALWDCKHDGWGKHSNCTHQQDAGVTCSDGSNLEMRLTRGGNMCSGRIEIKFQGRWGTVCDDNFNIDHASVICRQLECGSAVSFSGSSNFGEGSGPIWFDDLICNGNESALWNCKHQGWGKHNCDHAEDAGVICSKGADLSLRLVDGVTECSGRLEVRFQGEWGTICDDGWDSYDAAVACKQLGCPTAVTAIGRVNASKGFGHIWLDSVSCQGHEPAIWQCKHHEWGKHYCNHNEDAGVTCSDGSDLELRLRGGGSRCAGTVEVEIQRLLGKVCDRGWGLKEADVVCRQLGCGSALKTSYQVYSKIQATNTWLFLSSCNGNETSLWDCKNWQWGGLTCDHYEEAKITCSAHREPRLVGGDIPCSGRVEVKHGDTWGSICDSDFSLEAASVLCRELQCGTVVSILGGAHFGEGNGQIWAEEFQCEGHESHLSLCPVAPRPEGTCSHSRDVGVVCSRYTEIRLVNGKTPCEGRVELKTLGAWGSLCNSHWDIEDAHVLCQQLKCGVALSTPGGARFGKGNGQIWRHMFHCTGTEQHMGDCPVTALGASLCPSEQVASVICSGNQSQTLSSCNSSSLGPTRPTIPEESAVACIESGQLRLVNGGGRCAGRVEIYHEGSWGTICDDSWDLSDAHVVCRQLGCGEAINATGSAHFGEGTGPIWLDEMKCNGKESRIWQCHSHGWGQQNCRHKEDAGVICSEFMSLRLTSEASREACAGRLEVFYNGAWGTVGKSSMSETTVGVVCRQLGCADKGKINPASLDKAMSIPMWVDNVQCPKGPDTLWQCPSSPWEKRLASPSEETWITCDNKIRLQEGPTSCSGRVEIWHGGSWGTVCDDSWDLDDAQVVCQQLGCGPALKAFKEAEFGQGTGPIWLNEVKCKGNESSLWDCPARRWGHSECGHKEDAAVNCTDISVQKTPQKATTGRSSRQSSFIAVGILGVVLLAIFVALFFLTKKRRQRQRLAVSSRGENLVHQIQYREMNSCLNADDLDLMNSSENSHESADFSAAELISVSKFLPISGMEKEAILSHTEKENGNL
In words: flow cytometry on HEK293T hCD163+ cells. The text has this:
FIG. 2. Binding of the CD163-targeting single domain antibody (23766) to HEK293T cells overexpressing the hCD163 or mCD163 protein. A) Binding of different concentrations of the CD163-specific single domain antibody 23766 or an irrelevant single domain antibody (“Irr Nb”; R3b23) to HEK293T cells overexpressing (A), hCD163 or (B) mCD163 protein. Binding was detected as mean fluorescent intensity (MFI) via the C-terminal His-tag and a fluorescent labeled anti-His antibody using flow cytometry.
Serial dilutions of the CD163-targeting sdAb and of the NOTA-conjugated anti-CD163 sdAb were incubated with 500.000 HEK293T cells overexpressing hCD163 or mCD163 in FACS buffer (HBSS (Gibco) supplemented with 1% FBS and 2 mM EDTA (Duchefa Biochemie, Haarlem, The Netherlands)) for 1 h at 4° C. NOTA-sdAb binding was detected by incubation of the cells with a PE tagged anti-VHH Ab (1:500 in FACS buffer, Genscript, Piscataway, NJ, USA) for 30 min at 4° C. […] Next, sdAb binding was detected by incubation of the cells with an Alexa Fluor®-488 tagged anti-HA antibody (1:1000 in FACS buffer, clone 16B12, Biolegend, San Diego, CA, USA) for 30 min at 4° C. Again, cells were washed once with FACS buffer. sdAb binding was determined using the FACS CANTO II analyser (BD Biosciences, Franklin Lakes, NJ, USA). The mean fluorescent intensity of sdAb binding was determined using FlowJo version 10.
For orientation: A flow cytometer gives signals particle by particle.

Experiment [5] concerns the target T1, recombinant human CD163 protein …. In words: SPR (Biacore T200), recombinant hCD163 protein. As to the method: as §3
For orientation: In SPR one partner is held on a chip, and binding of the other changes the refractive index at the surface.

For experiment [6], the target named is T2, human CD163 on HEK293T cells …. The experiment is described as follows: flow cytometry on HEK293T hCD163+ cells; mean ± S.D. of at least 3 independent experiments. As to the method:
Serial dilutions of the CD163-targeting sdAb and of the NOTA-conjugated anti-CD163 sdAb were incubated with 500.000 HEK293T cells overexpressing hCD163 or mCD163 in FACS buffer (HBSS (Gibco) supplemented with 1% FBS and 2 mM EDTA (Duchefa Biochemie, Haarlem, The Netherlands)) for 1 h at 4° C. NOTA-sdAb binding was detected by incubation of the cells with a PE tagged anti-VHH Ab (1:500 in FACS buffer, Genscript, Piscataway, NJ, USA) for 30 min at 4° C. Cells were washed once with FACS buffer. Next, sdAb binding was detected by incubation of the cells with an Alexa Fluor®-488 tagged anti-HA antibody (1:1000 in FACS buffer, clone 16B12, Biolegend, San Diego, CA, USA) for 30 min at 4° C. Again, cells were washed once with FACS buffer. sdAb binding was determined using the FACS CANTO II analyser (BD Biosciences, Franklin Lakes, NJ, USA). The mean fluorescent intensity of sdAb binding was determined using FlowJo version 10.

Experiment [7] concerns the target T1, recombinant human CD163 protein …. The experiment is described as follows: SPR, recombinant hCD163 protein; mean ± S.D. of at least 3 independent experiments; mean ± S.D of at least 3 independent experiments (Table 1B), not the single value of Table 1A. As to the method:
as §3

The results in this text go back to patent US20260234282A1 (VIB VZW, published 2026).

T1 sequence (Q86VB7 42-1050 limits assumed): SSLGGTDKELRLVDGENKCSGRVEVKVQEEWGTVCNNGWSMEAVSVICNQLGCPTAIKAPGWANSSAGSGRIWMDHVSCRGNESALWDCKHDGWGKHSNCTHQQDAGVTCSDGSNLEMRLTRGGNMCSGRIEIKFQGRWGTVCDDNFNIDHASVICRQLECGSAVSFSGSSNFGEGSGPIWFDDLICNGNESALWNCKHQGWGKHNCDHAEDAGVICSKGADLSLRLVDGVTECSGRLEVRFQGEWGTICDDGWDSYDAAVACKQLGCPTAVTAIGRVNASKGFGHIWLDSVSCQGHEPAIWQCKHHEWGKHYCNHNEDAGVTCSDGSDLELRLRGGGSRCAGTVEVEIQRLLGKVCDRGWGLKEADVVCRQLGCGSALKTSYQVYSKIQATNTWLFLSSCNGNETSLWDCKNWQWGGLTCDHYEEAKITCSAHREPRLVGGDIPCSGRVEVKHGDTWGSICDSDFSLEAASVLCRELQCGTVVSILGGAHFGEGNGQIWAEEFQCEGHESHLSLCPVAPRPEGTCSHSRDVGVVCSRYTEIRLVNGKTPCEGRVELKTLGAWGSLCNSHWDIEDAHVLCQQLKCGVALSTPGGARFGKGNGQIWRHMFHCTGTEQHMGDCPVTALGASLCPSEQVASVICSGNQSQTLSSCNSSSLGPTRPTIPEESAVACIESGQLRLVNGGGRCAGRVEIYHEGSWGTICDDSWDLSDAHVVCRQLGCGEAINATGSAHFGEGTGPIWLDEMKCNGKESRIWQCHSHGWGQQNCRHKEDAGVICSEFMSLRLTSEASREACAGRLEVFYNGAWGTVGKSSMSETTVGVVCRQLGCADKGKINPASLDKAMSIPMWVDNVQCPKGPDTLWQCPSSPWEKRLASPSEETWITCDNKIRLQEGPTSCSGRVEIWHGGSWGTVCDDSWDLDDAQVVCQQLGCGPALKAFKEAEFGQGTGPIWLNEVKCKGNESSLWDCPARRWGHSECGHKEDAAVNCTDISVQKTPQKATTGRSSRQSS

B1: [68Ga]Ga-NOTA-anti-CD163 single domain antibody (VHH)
VHH: DVQLVESGGGLVQPGGSLRLSCAASGITFSSYAVAWFRQASGKEREFVAFIGWDGDTTYYVDSVKGRFTISRDNAKNMVYLQMNSLKPDDTAIYYCARHKTLWRSSWDNRPVQYDYWGQGTQVTVSS
modifications: p-SCN-Bn-NOTA randomly conjugated to lysines, chelating 68Ga
notes: Radiolabeled form of the NOTA conjugate of the lead anti-CD163 sdAb; also called 68Gallium-labeled anti-CD163 single domain antibody; [68Ga]Ga-NOTA-anti-CD163 Nb
With B1, the “EC50 (read off the curve)” value in experiment [1] was about 7 nM. In addition, the Kd in experiment [2] turned out to be 9.11 nM.

B2: NOTA-conjugated anti-CD163 single domain antibody (VHH)
VHH: DVQLVESGGGLVQPGGSLRLSCAASGITFSSYAVAWFRQASGKEREFVAFIGWDGDTTYYVDSVKGRFTISRDNAKNMVYLQMNSLKPDDTAIYYCARHKTLWRSSWDNRPVQYDYWGQGTQVTVSS
modifications: p-SCN-Bn-NOTA randomly conjugated to lysines; 2.32±0.12 chelator per single domain antibody
notes: The lead anti-CD163 sdAb (23766) conjugated to NOTA; also called NOTA-single domain antibody; NOTA-sdAb
Turning to B2, the Kd in experiment [3] is 1.55 nM.

B3: CD163-targeting single domain antibody 23766 (VHH, not shown: small tags and cut ends)
VHH: DVQLVESGGGLVQPGGSLRLSCAASGITFSSYAVAWFRQASGKEREFVAFIGWDGDTTYYVDSVKGRFTISRDNAKNMVYLQMNSLKPDDTAIYYCARHKTLWRSSWDNRPVQYDYWGQGTQVTVSS
notes: Llama-derived sdAb cloned in the pMECS phage vector; also called sdAb 23766; sdAb23766
Regarding B3, the Kd in experiment [4] came to 2.5 nM; in experiment [5], 3.5 nM; in experiment [6], 11.3 nM; in experiment [7], 0.5 nM.

As a reminder, the EC50 (read off the curve) is the midpoint of the concentration-response curve. For orientation: Kd means the equilibrium constant for the complex coming apart.
